In paper PMC5650148, “Ssn6-Tup1 global transcriptional co-repressor: Role of the N-terminal glutamine-rich region of Ssn6” (PLoS ONE, 2017):

B2: Ssn6 Sc3T (N175), the 175 amino-terminal residues of Ssn6 (domain or fragment, yeast, UniProt P14922 1-175, looked up)
chain: MNPGGEQTIMEQPAQQQQQQQQQQQQQQQQAAVPQQPLDPLTQSTAETWLSIASLAETLGDGDRAAMAYDATLQFNPSSAKALTSLAHLYRSRDMFQRAAELYERALLVNPELSDVWATLGHCYLMLDDLQRAYNAYQQALYHLSNPNVPKLWHGIGILYDRYGSLDYAEEAFAK
notes: Ssn6 (also known as Cyc8), yeast, the 175 amino-terminal residues: NTpolyQ tail and TPRs 1 to 3; One molecule stands for both two-hybrid forms of the same fragment: LexA-Sc3T as bait and Sc3T-Vp16 as prey; A chain carries either LexA or Vp16, never both; The LexA form was also used in the repression assay; also called LexA-Ssn6 Sc3T; LexA-Sc3T (N175); source: yeast two-hybrid fusion (LexA hybrid …)
B5: Tup1 N72, the Ssn6-interaction and Tup1 oligomerization domain (domain or fragment, yeast, UniProt P16649 1-72, looked up)
chain: MTASVSNTQNKLNELLDAIRQEFLQVSQEANTYRLQNQKDYDFKMNQQLAEMQQIRNTVYELELTHRKMKDA
notes: One molecule stands for both two-hybrid forms: LexA-Tup1 N72 as bait and Tup1 N72-Vp16 as prey; also called LexA-Tup1 N72; Tup1 N72-Vp16; source: yeast two-hybrid fusion (LexA hybrid from YCp91; Vp16 hybrid from YEp92)

Experiments:
[1] = molecular target: B2; test: two-hybrid; LexA hybrids as DNA-binding baits, Vp16 or Gal4 activation domain hybrids as preys; wild-type yeast strain; lacZ reporter JK103 with four LexA operators upstream of the GAL1 TATA element; beta-galactosidase activity in Miller units, average of at least three transformants; conditions: partners not purified
[2] = molecular target: B5; test: cell-based or functional assay
[3] = molecular target: B5; test: two-hybrid; LexA hybrids as DNA-binding baits, Vp16 or Gal4 activation domain hybrids as preys; wild-type yeast strain; lacZ reporter JK103 with four LexA operators upstream of the GAL1 TATA element; beta-galactosidase activity in Miller units, average of at least three transformants; conditions: partners not purified
[4] = molecular target: the molecule itself; test: SEC; Biogel P100 gel filtration in 20 mM phosphate buffer pH 8.0, 300 mM NaCl, 1 mM DTT; calibrated with protein standards; self-association of the fragment
[5] = molecular target: the molecule itself; test: two-hybrid; LexA hybrids as DNA-binding baits, Vp16 or Gal4 activation domain hybrids as preys; wild-type yeast strain; lacZ reporter JK103 with four LexA operators upstream of the GAL1 TATA element; beta-galactosidase activity in Miller units, average of at least three transformants

B1: Ssn6 Δ29 (amino acids 30 to 180) (domain or fragment, yeast, UniProt P14922 30-180, looked up)
chain: QAAVPQQPLDPLTQSTAETWLSIASLAETLGDGDRAAMAYDATLQFNPSSAKALTSLAHLYRSRDMFQRAAELYERALLVNPELSDVWATLGHCYLMLDDLQRAYNAYQQALYHLSNPNVPKLWHGIGILYDRYGSLDYAEEAFAKVLELD
notes: Ssn6 (also known as Cyc8), yeast, amino acids 30 to 180; lacks residues 1-29 of the NTpolyQ tail and contains three intact TPRs; also called Ssn6 Δ29-Gal4; LexA-Ssn6 Δ29; source: yeast two-hybrid fusion (clone isolated from a Gal4pAD yeast genomic library, pACTII)
[1]
  beta-galactosidase activity: 93 Miller units
[2]
  fold repression of the 4Lop-CYC1 lacZ reporter by LexA-Ssn6 Δ29 in the wild-type strain (endogenous Tup1): 1 fold

## B2
[3]
  beta-galactosidase activity: 80 Miller units
[2]
  fold repression of the 4Lop-CYC1 lacZ reporter by LexA-Ssn6 Sc3T in the wild-type strain (endogenous Tup1): 12 fold

B3: Ssn6 Δ45 (amino acids 46-181), Vp16 activation hybrid (domain or fragment, yeast, UniProt P14922 46-181, looked up)
chain: AETWLSIASLAETLGDGDRAAMAYDATLQFNPSSAKALTSLAHLYRSRDMFQRAAELYERALLVNPELSDVWATLGHCYLMLDDLQRAYNAYQQALYHLSNPNVPKLWHGIGILYDRYGSLDYAEEAFAKVLELDP
notes: Ssn6 (also known as Cyc8), yeast, amino acids 46-181; lacks the entire NTpolyQ tail (1-45); the four N-terminal TPRs; also called Ssn6 Δ45-Vp16; Ssn6 Δ45-Vp1; source: yeast two-hybrid fusion (YEp92)
[1]
  beta-galactosidase activity: 122 Miller units
[2]
  fold repression of the 4Lop-CYC1 lacZ reporter by LexA-Ssn6 Δ45 in the wild-type strain (endogenous Tup1): 1 fold

B4: Ssn6 Δ45 (amino acids 46-181), purified recombinant fragment (domain or fragment, yeast, UniProt P14922 46-181, looked up)
chain: AETWLSIASLAETLGDGDRAAMAYDATLQFNPSSAKALTSLAHLYRSRDMFQRAAELYERALLVNPELSDVWATLGHCYLMLDDLQRAYNAYQQALYHLSNPNVPKLWHGIGILYDRYGSLDYAEEAFAKVLELDP
notes: Ssn6 (also known as Cyc8), yeast, amino acids 46-181; the four N-terminal TPRs, without the NTpolyQ tail; Cloned in pGEX-2T; GST was removed with thrombin on the column; also called GST-Δ45; source: E. coli BL21(DE3), purified (Glutathione Sepharose 4B, thrombin digestion, Biogel P100 gel filtration)
[4]
  stoichiometry N: ~3

## B5
[1]
  beta-galactosidase activity: 51 Miller units
[5]
  beta-galactosidase activity: 56 Miller units
